Results on one molecule are retold here after PMC2777425.

In the data set the target is T1, K752G844 (winged-helix domain) (UniProt Q54324 752-844).
T1 sequence: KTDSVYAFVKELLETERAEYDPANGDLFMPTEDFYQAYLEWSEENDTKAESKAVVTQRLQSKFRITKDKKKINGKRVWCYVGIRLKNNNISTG
Put plainly: fluorescence anisotropy.

B1: 17-mer ss (ssDNA)
DNA: TCTTCTGTGCACTCTTC
Regarding B1, the “apparent K (half saturation)” value is 1600 nM.
